Data taken from the RNAGym collection of RNA variant scans (doi:10.7554/elife.80360).

B1: CPEB3 Ribozyme (parent)
chain: GGGGGCCACAGCAGAAGCGUUCACGUCGCGGCCCCUGUCAGAUUCUGGUGAAUCUGCGAAUUCUGCUGU

Variants of: B1
Assay: self-cleavage, relative activity (ratio to wild type); higher = more cleavage; co-transcriptional

Compared with G3C C66U, G3C G5C is lower in self-cleavage: 0.127 for the first, 0.0475 for the second.

Going from G3C G19U to G3C G28U, the self-cleavage rises from 0.0242 to 0.0508.

First: G3C G30U
Second: G3C G31A
The self-cleavage of the first is lower: 0.0314 for the first, 0.0559 for the second.

Compared with G3C G31U, G3C G41C is lower in self-cleavage: 0.048 for the first, 0.0352 for the second.

Compared with G3C G48A, G3C G50C is lower in self-cleavage: 0.117 for the first, 0.0988 for the second.

Going from G3C G50U to G3C G56A, the self-cleavage falls from 0.133 to 0.0675.

First: G3C G56C
Second: G3C G58C
The self-cleavage of the first is lower: 0.0668 for the first, 0.0803 for the second.

Going from G3C G65A to G3C G68U, the self-cleavage rises from 0.117 to 0.374.

Compared with G3C U20C, G3C U26A is higher in self-cleavage: 0 for the first, 0.0495 for the second.

Going from G3C U38C to G3C U43C, the self-cleavage rises from 0.0718 to 0.121.

First: G3C U44C
Second: G3C U46G
The self-cleavage of the first is higher: 0.132 for the first, 0.068 for the second.

Compared with G3C U49A, G3C U53A is lower in self-cleavage: 0.168 for the first, 0.0705 for the second.

Compared with G3C U61A, G3C U61C is higher in self-cleavage: 0.0406 for the first, 0.0948 for the second.

Going from G3C U62A to G3C U64G, the self-cleavage rises from 0.0658 to 0.0913.

First: G3C U67C
Second: G3C U69A
The self-cleavage of the first is higher: 0.218 for the first, 0.209 for the second.

Compared with G3U A10G, G3U A23C is lower in self-cleavage: 0.158 for the first, 0.135 for the second.

Going from G3U A23U to G3U A40C, the self-cleavage falls from 0.344 to 0.0469.

Compared with G3U A42C, G3U A42G is higher in self-cleavage: 0.0373 for the first, 0.11 for the second.

Compared with G3U A42U, G3U A51G is lower in self-cleavage: 0.0748 for the first, 0.0734 for the second.

First: G3U A52C
Second: G3U A52G
The self-cleavage of the first is lower: 0.0886 for the first, 0.122 for the second.

Going from G3U A52U to G3U A59G, the self-cleavage falls from 0.142 to 0.0478.

Compared with G3U C6A, G3U C7G is lower in self-cleavage: 0.0458 for the first, 0.0286 for the second.

Going from G3U C9A to G3U C9U, the self-cleavage falls from 0.655 to 0.521.

First: G3U C12G
Second: G3U C12U
The self-cleavage of the first is lower: 0.0607 for the first, 0.169 for the second.

First: G3U C18A
Second: G3U C18G
The self-cleavage of the first is higher: 0.0631 for the first, 0.0415 for the second.

Going from G3U C18U to G3U C27A, the self-cleavage falls from 0.0757 to 0.0666.

Compared with G3U C29A, G3U C29G is higher in self-cleavage: 0.0168 for the first, 0.0557 for the second.

Compared with G3U C32A, G3U C32G is higher in self-cleavage: 0.0393 for the first, 0.054 for the second.

First: G3U C33G
Second: G3U C34G
The self-cleavage of the first is lower: 0.0603 for the first, 0.643 for the second.

Going from G3U C35U to G3U C45A, the self-cleavage rises from 0.0525 to 0.105.

First: G3U C45G
Second: G3U C57G
The self-cleavage of the first is higher: 0.112 for the first, 0.0443 for the second.

Compared with G3U C63A, G3U C63G is higher in self-cleavage: 0.0888 for the first, 0.1 for the second.

Going from G3U C66A to G3U G4U, the self-cleavage falls from 0.0783 to 0.0247.

Going from G3U G5U to G3U G11A, the self-cleavage rises from 0.0488 to 0.125.

First: G3U G11U
Second: G3U G14A
The self-cleavage of the first is higher: 0.0744 for the first, 0.0323 for the second.

First: G3U G17A
Second: G3U G19C
The self-cleavage of the first is lower: 0.0459 for the first, 0.0665 for the second.

Going from G3U G25A to G3U G25U, the self-cleavage falls from 0.046 to 0.0356.

Compared with G3U G28A, G3U G31C is higher in self-cleavage: 0.0444 for the first, 0.0621 for the second.

Compared with G3U G47A, G3U G48C is lower in self-cleavage: 0.192 for the first, 0.151 for the second.

First: G3U G48U
Second: G3U G50A
The self-cleavage of the first is lower: 0.135 for the first, 0.172 for the second.

Compared with G3U G50U, G3U G56A is lower in self-cleavage: 0.171 for the first, 0.035 for the second.

Compared with G3U G58U, G3U G65U is lower in self-cleavage: 0.189 for the first, 0.101 for the second.

First: G3U G68C
Second: G3U G68U
The self-cleavage of the first is higher: 0.548 for the first, 0.546 for the second.

First: G3U U20C
Second: G3U U20G
The self-cleavage of the first is higher: 0.0468 for the first, 0.0082 for the second.

Compared with G3U U26A, G3U U36A is higher in self-cleavage: 0.0295 for the first, 0.0376 for the second.

Going from G3U U38A to G3U U43G, the self-cleavage falls from 0.22 to 0.0687.

Going from G3U U46A to G3U U49G, the self-cleavage falls from 0.162 to 0.0811.

Going from G3U U53G to G3U U55A, the self-cleavage rises from 0.0759 to 0.0915.

First: G3U U55G
Second: G3U U61G
The self-cleavage of the first is lower: 0.0975 for the first, 0.114 for the second.

First: G3U U62C
Second: G3U U67C
The self-cleavage of the first is lower: 0.0865 for the first, 0.317 for the second.

Compared with G3U U67G, G4A is higher in self-cleavage: 0.312 for the first, 0.898 for the second.

First: G4A A10U
Second: G4A A13G
The self-cleavage of the first is higher: 0.941 for the first, 0.88 for the second.

First: G4A A16C
Second: G4A A23C
The self-cleavage of the first is lower: 0.0992 for the first, 0.573 for the second.

Compared with G4A A40G, G4A A40U is lower in self-cleavage: 0.773 for the first, 0.48 for the second.

Compared with G4A A42U, G4A A51C is lower in self-cleavage: 0.721 for the first, 0.702 for the second.

Compared with G4A A51G, G4A A52C is lower in self-cleavage: 0.787 for the first, 0.763 for the second.

Going from G4A A52G to G4A C6G, the self-cleavage falls from 0.864 to 0.07.

First: G4A C6U
Second: G4A C7G
The self-cleavage of the first is higher: 0.426 for the first, 0.0338 for the second.

Compared with G4A C12U, G4A C22A is lower in self-cleavage: 0.876 for the first, 0.087 for the second.

Compared with G4A C27G, G4A C29A is higher in self-cleavage: 0.119 for the first, 0.226 for the second.

Compared with G4A C32G, G4A C32U is higher in self-cleavage: 0.171 for the first, 0.495 for the second.

Compared with G4A C33A, G4A C33U is higher in self-cleavage: 0.897 for the first, 0.968 for the second.

Going from G4A C34G to G4A C35U, the self-cleavage rises from 0.16 to 0.244.

Compared with G4A C39G, G4A C45G is lower in self-cleavage: 0.717 for the first, 0.691 for the second.

First: G4A C54A
Second: G4A C54U
The self-cleavage of the first is lower: 0.457 for the first, 0.776 for the second.

Compared with G4A C63A, G4A C63G is higher in self-cleavage: 0.483 for the first, 0.521 for the second.

First: G4A C66G
Second: G4A G5U
The self-cleavage of the first is higher: 0.799 for the first, 0.0889 for the second.

Going from G4A G14A to G4A G17U, the self-cleavage falls from 0.401 to 0.145.

Going from G4A G19A to G4A G25C, the self-cleavage rises from 0.092 to 0.114.

Going from G4A G28A to G4A G31A, the self-cleavage rises from 0.117 to 0.227.

Compared with G4A G41C, G4A G41U is higher in self-cleavage: 0.341 for the first, 0.525 for the second.

Going from G4A G47U to G4A G48C, the self-cleavage falls from 0.899 to 0.802.

First: G4A G48U
Second: G4A G56A
The self-cleavage of the first is higher: 0.919 for the first, 0.604 for the second.

Compared with G4A G58C, G4A G68A is higher in self-cleavage: 0.701 for the first, 0.999 for the second.

Compared with G4A G68C, G4A U20C is lower in self-cleavage: 0.959 for the first, 0.128 for the second.

First: G4A U21A
Second: G4A U26A
The self-cleavage of the first is higher: 0.793 for the first, 0.604 for the second.

First: G4A U26G
Second: G4A U36A
The self-cleavage of the first is higher: 0.504 for the first, 0.13 for the second.

Compared with G4A U38C, G4A U46A is higher in self-cleavage: 0.699 for the first, 0.899 for the second.

First: G4A U46G
Second: G4A U49A
The self-cleavage of the first is lower: 0.841 for the first, 0.852 for the second.

First: G4A U53A
Second: G4A U53G
The self-cleavage of the first is higher: 0.602 for the first, 0.517 for the second.

First: G4A U55A
Second: G4A U55C
The self-cleavage of the first is higher: 0.636 for the first, 0.351 for the second.

First: G4A U61C
Second: G4A U62A
The self-cleavage of the first is lower: 0.433 for the first, 0.601 for the second.

Going from G4A U62G to G4A U64A, the self-cleavage rises from 0.419 to 0.7.

G4A U64C gave a self-cleavage of 0.696.
